Measured values from PMC11524007.

Legend:
[1] = target: HIF1β (human (endogenous in LS174T and in patient renal tissue)) (UniProt P27540); assay: FRET or BRET; FuncOmap: Ef computed for each coincidence region of the two-site aFRET/FLIM images, HIF1β/HIF2α in ccRCC core B5; Otsu thresholding; Ef below 4% regarded as non-interactive
[2] = target: HIF1β (human (endogenous in LS174T and in patient renal tissue)) (UniProt P27540); assay: FRET or BRET; FuncOmap: Ef computed for each coincidence region of the two-site aiFRET/FLIM images of tissue microarray cores (HIF1β/HIF2α: B7, A5; PD-1/PD-L1: B7, B5, A5); Otsu thresholding; Ef below 4% regarded as non-interactive
[3] = target: HIF1β (human (endogenous in LS174T and in patient renal tissue)) (UniProt P27540); assay: FRET or BRET; two-site amplified FRET (aFRET) read by frequency-domain FLIM on PFA-fixed, permeabilised LS174T cells under hypoxia (1% O2, 48 h); donor ATTO488 on anti-HIF-1β, acceptor Alexa594 (TSA) on anti-HIF-2α; Ef below 4% regarded as non-interactive
[4] = target: HIF1β (human (endogenous in LS174T and in patient renal tissue)) (UniProt P27540); assay: FRET or BRET; two-site aiFRET read by frequency-domain FLIM on tissue microarray cores (normal renal tissue B7, ccRCC cores A1 and A2); median Ef over 10-20 hand-picked regions of interest; donor ATTO488 on HIF1β or PD-1, acceptor Alexa594 (TSA) on HIF2α or PD-L1; Ef below 4% regarded as non-interactive
[5] = target: PD-1 (human (endogenous in patient renal tissue)) (UniProt Q15116); assay: FRET or BRET; FuncOmap: Ef computed for each coincidence region of the two-site aiFRET/FLIM images of tissue microarray cores (HIF1β/HIF2α: B7, A5; PD-1/PD-L1: B7, B5, A5); Otsu thresholding; Ef below 4% regarded as non-interactive
[6] = target: PD-1 (human (endogenous in patient renal tissue)) (UniProt Q15116); assay: FRET or BRET; two-site aiFRET read by frequency-domain FLIM on tissue microarray cores (normal renal tissue B7, ccRCC cores A1 and A2); median Ef over 10-20 hand-picked regions of interest; donor ATTO488 on HIF1β or PD-1, acceptor Alexa594 (TSA) on HIF2α or PD-L1; Ef below 4% regarded as non-interactive

Sequence of HIF1β (human (endogenous in LS174T and in patient renal tissue)) (P27540 whole entry): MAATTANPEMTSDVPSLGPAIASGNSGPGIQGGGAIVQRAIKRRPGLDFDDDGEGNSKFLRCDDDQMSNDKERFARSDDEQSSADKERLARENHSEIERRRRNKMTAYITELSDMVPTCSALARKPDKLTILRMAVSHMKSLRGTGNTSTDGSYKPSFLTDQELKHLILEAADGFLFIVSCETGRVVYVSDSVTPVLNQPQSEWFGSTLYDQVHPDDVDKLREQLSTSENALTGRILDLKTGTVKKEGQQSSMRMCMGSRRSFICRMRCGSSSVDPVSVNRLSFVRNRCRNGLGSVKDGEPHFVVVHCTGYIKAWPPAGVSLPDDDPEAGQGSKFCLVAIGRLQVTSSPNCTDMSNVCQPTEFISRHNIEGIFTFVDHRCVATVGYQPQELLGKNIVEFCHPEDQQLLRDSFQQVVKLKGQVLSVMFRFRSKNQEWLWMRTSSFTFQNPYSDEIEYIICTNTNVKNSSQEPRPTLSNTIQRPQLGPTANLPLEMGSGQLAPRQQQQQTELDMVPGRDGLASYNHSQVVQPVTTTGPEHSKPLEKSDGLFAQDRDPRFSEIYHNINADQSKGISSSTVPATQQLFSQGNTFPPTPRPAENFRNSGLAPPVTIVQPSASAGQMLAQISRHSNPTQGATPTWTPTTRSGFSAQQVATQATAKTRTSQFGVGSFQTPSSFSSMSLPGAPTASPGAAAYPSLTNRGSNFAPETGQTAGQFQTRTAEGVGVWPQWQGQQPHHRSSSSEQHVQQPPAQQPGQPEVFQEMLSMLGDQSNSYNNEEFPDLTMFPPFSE
Sequence of PD-L1 (Q9NZQ7 19-290): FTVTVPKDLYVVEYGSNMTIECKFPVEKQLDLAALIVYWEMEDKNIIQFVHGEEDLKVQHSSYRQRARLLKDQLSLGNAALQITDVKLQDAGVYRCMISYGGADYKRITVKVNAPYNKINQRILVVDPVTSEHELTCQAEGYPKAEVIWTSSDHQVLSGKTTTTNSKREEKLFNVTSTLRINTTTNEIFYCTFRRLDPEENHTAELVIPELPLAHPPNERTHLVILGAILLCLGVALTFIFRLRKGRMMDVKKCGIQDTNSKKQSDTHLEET
Sequence of PD-1 (human (endogenous in patient renal tissue)) (Q15116 25-288): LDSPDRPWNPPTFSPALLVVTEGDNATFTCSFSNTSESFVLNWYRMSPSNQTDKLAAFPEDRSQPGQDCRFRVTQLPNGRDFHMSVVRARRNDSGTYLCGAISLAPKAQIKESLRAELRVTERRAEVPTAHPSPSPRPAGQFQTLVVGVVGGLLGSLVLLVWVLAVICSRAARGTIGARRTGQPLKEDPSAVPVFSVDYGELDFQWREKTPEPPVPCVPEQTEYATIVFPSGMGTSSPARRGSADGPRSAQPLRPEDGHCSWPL

In the case of “HIF2α (from UniProt Q99814 1-870) (natural protein)”, the Ef, core B5, region 61 [1] is reported as 0%, the Ef, core B5, region 80 [1] is reported as 0% and the Ef, core B5, region 103 [1] is reported as 0%. For the same substance, the Ef, core B5, region 140 [1] was 0%, the Ef, core B5, region 162 [1] was 0% and the Ef, core B5, region 167 [1] was 0%. For the same substance, the Ef, core B5, region 174 [1] was 0%, the Ef, core B5, region 198 [1] was 0% and the Ef, core B5, region 199 [1] was 0%. It also gave an Ef, core B5, region 220 [1] of 0%, an Ef, core B5, region 230 [1] of 0% and an Ef, core B5, region 242 [1] of 0%. For the same substance, the Ef, core B5, region 246 [1] was 0%, the Ef, core B5, region 277 [1] was 0% and the Ef, core B5, region 318 [1] was 0%. It also gave an Ef, core B5, region 431 [1] of 0%, an Ef, core B5, region 452 [1] of 0% and an Ef, core B5, region 585 [1] of 0%. It also gave an Ef, core B5, region 586 [1] of 0%, an Ef, core B5, region 592 [1] of 0% and an Ef, core B5, region 600 [1] of 0%. For the same substance, the Ef, core B5, region 601 [1] was 0%, the Ef, core B5, region 632 [1] was 0% and the Ef, core B5, region 659 [1] was 0%. For the same substance, the Ef, core B5, region 669 [1] was 0%, the Ef, core A5, region 12 [2] was 12.2% and the Ef, core A5, region 78 [2] was 13.5%. The Ef, core A5, region 83 [2] was 12.7%, the Ef, core A5, region 131 [2] was 13.5% and the Ef, core A5, region 168 [2] was 12.2%. The Ef, core A5, region 187 [2] was 12.2%, the Ef, core A5, region 189 [2] was 16% and the Ef, core A5, region 235 [2] was 15.4%. For the same substance, the Ef, core A5, region 276 [2] was 12.2%, the Ef, core A5, region 294 [2] was 13.5% and the Ef, core A5, region 383 [2] was 16%. The Ef, core A5, region 400 [2] was 12.2%, the Ef, core A5, region 531 [2] was 13.5% and the Ef, core A5, region 619 [2] was 13.5%. For the same substance, the Ef, core A5, region 679 [2] was 12.2%, the Ef, core A5, region 733 [2] was 11.4% and the Ef, core A5, region 817 [2] was 13.5%. For the same substance, the Ef, core A5, region 822 [2] was 12.2%, the Ef, core A5, region 826 [2] was 12.2% and the Ef, core A5, region 829 [2] was 16%. It also gave an Ef, core A5, region 1273 [2] of 12.2%, an Ef, core A5, region 1299 [2] of 16% and an Ef, core A5, region 1302 [2] of 19.8%. The Ef, core A5, region 1307 [2] was 21.1%, the Ef, core A5, region 1308 [2] was 14.8% and the Ef, core B7, region 64 [2] was 0%. It also gave an Ef, core B7, region 231 [2] of 0%, an Ef, core B7, region 402 [2] of 0% and an Ef, core B7, region 632 [2] of 0%. For the same substance, the Ef, core B7, region 633 [2] was 0%, the Ef, core B7, region 634 [2] was 0% and the Ef, core B7, region 635 [2] was 0%. It also gave an Ef, core B7, region 636 [2] of 0%, an Ef, core B7, region 637 [2] of 0% and an Ef, core B7, region 638 [2] of 0%. For the same substance, the Ef, core B7, region 639 [2] was 0%, the Ef, core B7, region 640 [2] was 0% and the Ef, core B7, region 641 [2] was 0%. For the same substance, the Ef, core B7, region 657 [2] was 0%, the Ef, core B7, region 662 [2] was 7.66% and the Ef, core B7, region 664 [2] was 0%. For the same substance, the Ef, core B7, region 672 [2] was 4.95%, the Ef, core B7, region 685 [2] was 0% and the Ef, core B7, region 686 [2] was 0%. For the same substance, the Ef, core B7, region 712 [2] was 0%, the Ef, core B7, region 719 [2] was 0% and the Ef, core B7, region 729 [2] was 0%. It also gave an Ef, core B7, region 754 [2] of 0%, an Ef, core B7, region 943 [2] of 0% and an Ef, core B7, region 950 [2] of 0%. For the same substance, the median FRET efficiency (hypoxia) [3] was 7.75%, the median Ef, ccRCC core A1 [4] was 13.6% and the median Ef, ccRCC core A2 [4] was 9.3%. It also gave a median Ef, normal tissue [4] of 6.7%.
For “PD-L1 (from UniProt Q9NZQ7 19-290) (ligand)”, the Ef, core A5, region 57 [5] was 0%, the Ef, core A5, region 63 [5] was 10.9% and the Ef, core A5, region 92 [5] was 8.6%. It also gave an Ef, core A5, region 110 [5] of 8.34%, an Ef, core A5, region 186 [5] of 8.16% and an Ef, core A5, region 421 [5] of 5.03%. The Ef, core A5, region 448 [5] was 7.7%, the Ef, core A5, region 482 [5] was 9.31% and the Ef, core A5, region 505 [5] was 7.72%. The Ef, core A5, region 564 [5] was 8.82%, the Ef, core A5, region 639 [5] was 11.2% and the Ef, core A5, region 653 [5] was 12.1%. For the same substance, the Ef, core A5, region 812 [5] was 16.7%, the Ef, core A5, region 823 [5] was 9.22% and the Ef, core A5, region 929 [5] was 8.25%. For the same substance, the Ef, core A5, region 949 [5] was 6.49%, the Ef, core A5, region 1053 [5] was 12.9% and the Ef, core A5, region 1064 [5] was 10.6%. The Ef, core A5, region 1113 [5] was 4.28%, the Ef, core A5, region 1241 [5] was 6.86% and the Ef, core A5, region 1250 [5] was 10.1%. The Ef, core A5, region 1255 [5] was 8.24%, the Ef, core A5, region 1274 [5] was 8.32% and the Ef, core A5, region 1360 [5] was 6.13%. For the same substance, the Ef, core A5, region 1405 [5] was 12.4%, the Ef, core B5, region 81 [5] was 21.8% and the Ef, core B5, region 107 [5] was 30.6%. It also gave an Ef, core B5, region 176 [5] of 28.4%, an Ef, core B5, region 249 [5] of 23.6% and an Ef, core B5, region 261 [5] of 15.7%. For the same substance, the Ef, core B5, region 373 [5] was 24%, the Ef, core B5, region 546 [5] was 24.8% and the Ef, core B5, region 551 [5] was 16.4%. The Ef, core B5, region 586 [5] was 17%, the Ef, core B5, region 622 [5] was 23.1% and the Ef, core B5, region 774 [5] was 25.1%. It also gave an Ef, core B5, region 841 [5] of 29.4%, an Ef, core B5, region 930 [5] of 28.3% and an Ef, core B5, region 1104 [5] of 21.1%. It also gave an Ef, core B5, region 1155 [5] of 20.4%, an Ef, core B5, region 1187 [5] of 0% and an Ef, core B5, region 1246 [5] of 15.8%. For the same substance, the Ef, core B5, region 1288 [5] was 26.3%, the Ef, core B5, region 1500 [5] was 28.5% and the Ef, core B5, region 1612 [5] was 13.9%. It also gave an Ef, core B5, region 1772 [5] of 20.8%, an Ef, core B5, region 1811 [5] of 24% and an Ef, core B5, region 1878 [5] of 18.1%. For the same substance, the Ef, core B5, region 2043 [5] was 20.4%, the Ef, core B5, region 2232 [5] was 28.3% and the Ef, core B7, region 24 [5] was 21.5%. For the same substance, the Ef, core B7, region 67 [5] was 14.2%, the Ef, core B7, region 102 [5] was 16.1% and the Ef, core B7, region 197 [5] was 21.2%. The Ef, core B7, region 233 [5] was 48.4%, the Ef, core B7, region 299 [5] was 16.3% and the Ef, core B7, region 356 [5] was 20%. It also gave an Ef, core B7, region 384 [5] of 16.5%, an Ef, core B7, region 442 [5] of 19.1% and an Ef, core B7, region 548 [5] of 23.4%. It also gave an Ef, core B7, region 561 [5] of 12.8%, an Ef, core B7, region 648 [5] of 26.6% and an Ef, core B7, region 772 [5] of 14.2%. It also gave an Ef, core B7, region 905 [5] of 12%, an Ef, core B7, region 984 [5] of 22.3% and an Ef, core B7, region 1009 [5] of 28.9%. For the same substance, the Ef, core B7, region 1273 [5] was 23.4%, the Ef, core B7, region 1454 [5] was 29.9% and the Ef, core B7, region 1657 [5] was 18.1%. For the same substance, the Ef, core B7, region 1711 [5] was 25.7%, the Ef, core B7, region 1750 [5] was 18.1% and the Ef, core B7, region 1861 [5] was 27.4%. The Ef, core B7, region 1919 [5] was 14.7%, the Ef, core B7, region 1932 [5] was 26.4% and the Ef, core B7, region 1973 [5] was 28.4%. For the same substance, the median Ef, normal tissue [6] was 5.24%.
